The record followed here is patent US9102763B2.

The target of the assay is T1, Syndecan-1.
T1 sequence (P18827 whole entry, species assumed, looked up): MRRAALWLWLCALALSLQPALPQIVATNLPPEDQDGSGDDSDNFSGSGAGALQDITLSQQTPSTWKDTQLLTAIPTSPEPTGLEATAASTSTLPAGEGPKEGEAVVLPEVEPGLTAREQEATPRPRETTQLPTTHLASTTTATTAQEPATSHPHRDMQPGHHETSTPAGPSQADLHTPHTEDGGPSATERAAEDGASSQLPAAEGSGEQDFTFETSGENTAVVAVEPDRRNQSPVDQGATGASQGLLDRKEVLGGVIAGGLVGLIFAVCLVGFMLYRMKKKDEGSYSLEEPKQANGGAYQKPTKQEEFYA

B1: lacritin (free lacritin released from Lac-ELP by thrombin cleavage) (ligand)
chain: MEDASSDSTGADPAQEAGTSKPNEEISGPAEPASPPETTTTAQETSAAAVQGTAKVTSSRQELNPLKSIVEKSILLTEQALAKAGKGMHGGVPGGKQFIENGSEFAQKLLKKFSLLKPWAGLVPR
Molecule B1 had a minimal therapeutic concentration (β-hexosaminidase secretion, rabbit LGACs) of 10 µM.
